Positions count from the first letter of the chain named.
B1: 6-5D3-hFab (Fab, V domains shown)
VH: EVQLVESGGGLVQPGGSLRLSCAASGYAFNTSWMNWVRQAPGKGLEWISRIYPGDGDTNYNGKFKGKATISADKSKNTLYLQMNSLRAEDTAVYYCARGEWYLYYFDYWGQGTLVTVSS
VL: DIQMTQSPSSLSASVGDRVTITCSASQGINNFLTWYQQKPGKALKLLIYYTSSLHSGVPSRFSGSGSGTDYTLTISSLQPEDFATYYCQQYSNLPFTFGQGTKVEIK
notes: Humanized Fab with a TwinStrep tag at the C-terminus of the CH1 constant domain; also called version 6 of 5D3-Fab; antibody 6 (Fab format)
B2: 2-5D3-hFab (Fab, V domains shown)
VH: QVQLVQSGAEVKKPGASVKVSCKASGYAFNTSWMNWVRQAPGQGLEYIGRIYPGDGDTNYNGKFKGKATMTADKSISTVYMEVRRLRSDDTAVYYCARGEWYLYYFDYWGQGTLVTVSS
VL: B1 VL with Q38H, K39E, S77T, Q100G
notes: Humanized Fab with a TwinStrep tag at the C-terminus of the CH1 constant domain; also called version 2 of 5D3-Fab; antibody 2
B3: 5-5D3-hFab (Fab, V domains shown)
VH: B2 VH with A9P, K19R, V20L, Y47W, I76T, S77N, V79A, V83L, R85S, A97G
VL: B1 VL with L11V, T22S, P40L, K45Q, Q100P, E105D
notes: Humanized Fab with a TwinStrep tag at the C-terminus of the CH1 constant domain; also called version 5 of 5D3-Fab; antibody 5

Molecular target: T1, human PSMA displayed on the surface of LNCaP cells (human, UniProt Q04609 1-750)
T1 construct: Endogenous PSMA on living LNCaP cells; also called PSMA-positive LNCaP cells
Assay: flow cytometry titration on cells (three-fold dilution series, anti-Strep antibody and goat anti-mouse Alexa Fluor 647); the sheet does not name the cell line, the text gives the curves as binding to cell-surface PSMA (LNCaP)
Protocol: FIG. 5—Affinity of Fab variants determined by flow cytometry. LNCaP (PSMA-positive) and DU145 (PSMA-negative) cell lines were probed with three-fold dilution series of tested Fab variants and bound antibodies visualized by the combination of anti-Strep and goat anti-mouse Alexa-Fluor647 antibodies. Cell samples were analyzed using a LSRFortessa flow cytometer and binding curves were fitted using a non-linear regression algorithm.
(§1) Flow cytometry was used to analyze affinity and specificity of 5D3-hFabs for PSMA in its physiological environment, i.e., at the surface of living cells. To this end, LNCaP and DU145 cells were used as representatives of PSMA-positive and PSMA-negative cell lines, respectively, in a protocol described previously (Novakova, Belousova et al. (2020), Int. J. Mol. Sci., 21(18):6672). Briefly, cells were treated by three-fold dilution series of 5D3-hFabs in the concentration range 6000 nM-0.42 pM. Bound 5D3-hFabs were detected by the combination of anti-Strep tag antibody and goat anti-mouse secondary antibody conjugated to Alexa Fluor 647. Cell samples were immediately analyzed using a LSRFortessa flow cytometer.

T1 sequence (Q04609 whole entry): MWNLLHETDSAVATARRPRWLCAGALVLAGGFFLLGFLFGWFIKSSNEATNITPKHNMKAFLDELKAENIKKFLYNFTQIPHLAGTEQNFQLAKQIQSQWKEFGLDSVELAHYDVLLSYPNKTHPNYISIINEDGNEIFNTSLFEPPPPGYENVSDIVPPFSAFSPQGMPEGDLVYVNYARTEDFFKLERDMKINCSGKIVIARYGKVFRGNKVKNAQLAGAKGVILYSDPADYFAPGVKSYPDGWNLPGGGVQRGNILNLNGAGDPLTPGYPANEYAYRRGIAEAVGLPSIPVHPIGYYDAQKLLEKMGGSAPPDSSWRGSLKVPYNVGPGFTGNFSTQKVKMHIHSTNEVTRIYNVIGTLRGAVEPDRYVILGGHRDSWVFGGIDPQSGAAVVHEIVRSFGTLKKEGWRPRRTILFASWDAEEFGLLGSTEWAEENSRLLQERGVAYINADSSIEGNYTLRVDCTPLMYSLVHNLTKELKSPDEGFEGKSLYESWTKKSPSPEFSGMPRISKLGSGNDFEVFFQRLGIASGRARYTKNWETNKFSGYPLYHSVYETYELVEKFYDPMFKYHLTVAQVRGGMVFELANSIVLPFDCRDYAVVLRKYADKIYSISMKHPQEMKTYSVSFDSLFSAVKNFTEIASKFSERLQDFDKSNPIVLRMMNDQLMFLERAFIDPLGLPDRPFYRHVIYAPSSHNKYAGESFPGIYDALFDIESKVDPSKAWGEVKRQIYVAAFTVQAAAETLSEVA

Row | EC50 (read off the curve) | Binder
1 | ~3 nM | B1
2 | ~3 nM | B2
3 | ~4 nM | B3

Molecular target: T2, recombinant human PSMA (prostate-specific membrane antigen), biotin-tagged (human, UniProt Q04609 44-750, biotin tag (site not stated))
T2 construct: also called biotin-tagged PSMA; biotin-labelled PSMA
Assay: ELISA on plates coated with recombinant PSMA (biotin-tagged, captured on streptavidin), two-fold dilution series, goat anti-human-HRP and TMB
Protocol: FIG. 4—Affinity of Fab variants determined by ELISA. Plates coated with recombinant PSMA were probed with two-fold dilution series of individual fragments and binding visualized using goat anti-human secondary antibody conjugated to horseradish peroxidase together with the TMB substrate. Binding curves were fitted using a non-linear regression algorithm.
(§2) Native ELISA was used to measure affinity of 5D3-hFabs for human PSMA. Experiments were performed in 96-well MaxiSorp plates coated with streptavidin complexed with biotin-tagged PSMA. Purified 5D3-hFabs were applied in 2-fold dilution series in the concentration range of 2000 nM-0.95 pM and goat anti-human secondary antibody conjugated to horseradish peroxidase, together with the TMB substrate, was used for 5D3-hFabs detection. Data were processed using a Prism 6 software (GraphPad, San Diego, CA) and binding curves fitted using an embedded non-linear curve-fitting algorithm (FIG. 4, Table 1). Affinity of all variants tested was in a single-digit nanomolar range (1.8-2.7 nM) and virtually identical to the parent murine and chimeric Fabs, documenting successful humanization results.

T2 sequence (Q04609 44-750 limits assumed): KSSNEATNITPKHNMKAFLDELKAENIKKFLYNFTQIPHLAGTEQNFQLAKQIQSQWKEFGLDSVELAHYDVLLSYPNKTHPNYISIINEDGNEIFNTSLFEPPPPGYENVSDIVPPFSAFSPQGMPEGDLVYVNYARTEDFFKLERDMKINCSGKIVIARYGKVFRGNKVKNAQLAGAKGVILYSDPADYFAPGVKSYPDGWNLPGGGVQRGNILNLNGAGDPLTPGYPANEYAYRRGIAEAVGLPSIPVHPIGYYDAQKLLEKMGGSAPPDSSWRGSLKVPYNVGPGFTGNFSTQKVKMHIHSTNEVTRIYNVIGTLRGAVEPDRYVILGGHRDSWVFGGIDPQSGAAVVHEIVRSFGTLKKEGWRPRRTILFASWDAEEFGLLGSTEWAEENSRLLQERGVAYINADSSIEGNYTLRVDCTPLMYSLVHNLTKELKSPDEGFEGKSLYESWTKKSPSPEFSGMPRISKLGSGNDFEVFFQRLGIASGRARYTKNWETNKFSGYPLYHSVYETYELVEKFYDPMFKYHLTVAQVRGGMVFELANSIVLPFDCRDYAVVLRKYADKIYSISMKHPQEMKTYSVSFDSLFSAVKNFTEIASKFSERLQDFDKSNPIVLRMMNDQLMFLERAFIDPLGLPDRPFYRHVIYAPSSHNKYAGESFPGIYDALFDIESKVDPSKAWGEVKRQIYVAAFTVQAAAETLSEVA

Row | EC50 (read off the curve) | Binder
4 | ~4 nM | B1
5 | ~2 nM | B2
6 | ~4 nM | B3

Molecular target: T2, recombinant human PSMA …
Assay: native ELISA, streptavidin-captured biotin-tagged PSMA, Fab titrated
Protocol: as §2

Row | Kd | Binder
7 | 1.8 nM | B1
8 | 2.7 nM | B2
9 | 1.8 nM | B3

Molecular target: T1, human PSMA displayed on the surface of …
Assay: flow cytometry on LNCaP cells, Fab titrated
Protocol: as §1

Row | Kd | Binder
10 | 2.8 nM | B1
11 | 3 nM | B2
12 | 4.1 nM | B3

Source: patent US20250282890A1 (TECHNISCHE UNIVERSIT T M NCHEN, published 2025)
